Assay results as given in publication doi:10.1101/2020.05.11.089458 (bioRxiv, 2020).

Target: the molecule itself
Test: SEC

Protein | stoichiometry N
YpTatB^22-220 (soluble cytoplasmic domain of Yersinia pseudotuberculosis TatB) (domain or fragment) PERLPVAVRTVSGWIRTLRSLAATVQNELAQELKLQELQDSLKKVEQAGLQNLTPELKASMDELKEAAEALKRSYHVDAGSEAPHTIHNPLVTEPEAIHDGVTPAEPATQVSALAQAPNILEAGTASVADSVVEAAPVTTVKSVVQGEVLVKSTPVQEVGLADVMDKPVTKQQIDTIDSHGTDLSSAGPSRIHQPGGDQ | 3
TatB^22-171 (soluble membrane-extrinsic cytoplasmic domain of E. coli TatB) (domain or fragment) PQRLPVAVKTVAGWIRALRSLATTVQNELTQELKLQEFQDSLKKVEKASLTNLTPELKASMDELRQAAESMKRSYVANDPEKASDEAHTIHNPVVKDNEAAHEGVTPAAAQTQASSPEQKPETTPEPVVKPAADAEPKTAAPSPSSSDKP | 4
